Paper PMC9482650, “Quantitative fragmentomics allow affinity mapping of interactomes” (Nature Communications, 2022)

T1: GRIP1_3, Q9Y3R0
T1 sequence (Q9Y3R0 247-346, limits assumed, looked up): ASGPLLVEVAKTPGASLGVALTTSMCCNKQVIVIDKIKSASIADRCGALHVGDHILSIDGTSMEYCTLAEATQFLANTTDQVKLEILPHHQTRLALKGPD

T2: HTRA3, P83110
T2 sequence (P83110 354-453, limits assumed, looked up): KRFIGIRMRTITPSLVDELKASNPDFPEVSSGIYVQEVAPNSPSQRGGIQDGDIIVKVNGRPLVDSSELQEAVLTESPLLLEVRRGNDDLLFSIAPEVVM

T3: LIN7C, Q9NUP9
T3 sequence (Q9NUP9 88-185, limits assumed, looked up): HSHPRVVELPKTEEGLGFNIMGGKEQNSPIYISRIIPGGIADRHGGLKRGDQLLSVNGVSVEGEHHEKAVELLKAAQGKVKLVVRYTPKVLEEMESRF

T4: MPP6, Q9NZW5
T4 sequence (Q9NZW5 125-219, limits assumed, looked up): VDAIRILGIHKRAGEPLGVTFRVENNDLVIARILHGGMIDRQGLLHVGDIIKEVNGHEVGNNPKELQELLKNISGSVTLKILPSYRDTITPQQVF

T5: MPP7, Q5T2T1
T5 sequence (Q5T2T1 134-230, limits assumed, looked up): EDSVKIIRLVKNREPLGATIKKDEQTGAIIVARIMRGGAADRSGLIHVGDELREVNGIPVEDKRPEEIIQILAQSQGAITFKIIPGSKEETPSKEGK

T6: NHERF3_3, Q5T2W1
T6 sequence (Q5T2W1 238-333, limits assumed, looked up): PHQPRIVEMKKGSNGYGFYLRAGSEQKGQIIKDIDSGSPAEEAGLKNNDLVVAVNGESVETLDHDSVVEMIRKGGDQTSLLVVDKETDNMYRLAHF

T7: PDZD7_3, Q9H5P4
T7 sequence (Q9H5P4 857-944, limits assumed, looked up): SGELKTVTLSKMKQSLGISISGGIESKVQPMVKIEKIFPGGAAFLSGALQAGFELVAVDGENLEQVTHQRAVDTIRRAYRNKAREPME

T8: RADIL, Q96JH8
T8 sequence (Q96JH8 971-1071, limits assumed, looked up): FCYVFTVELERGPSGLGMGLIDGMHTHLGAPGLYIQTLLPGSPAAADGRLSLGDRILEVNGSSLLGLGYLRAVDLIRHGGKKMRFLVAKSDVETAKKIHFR

T9: SNTB1, Q13884
T9 sequence (Q13884 107-205, limits assumed, looked up): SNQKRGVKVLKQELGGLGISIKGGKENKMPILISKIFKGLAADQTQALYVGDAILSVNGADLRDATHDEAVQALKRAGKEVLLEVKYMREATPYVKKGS

T10: SNTG1, Q9NSN8
T10 sequence (Q9NSN8 52-150, limits assumed, looked up): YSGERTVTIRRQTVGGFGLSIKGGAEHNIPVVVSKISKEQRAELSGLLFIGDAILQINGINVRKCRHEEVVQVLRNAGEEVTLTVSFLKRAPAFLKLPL


Experiments:
Assay in all cases: holdup assay
Set-up in all cases: key: below the threshold = too weak to quantify, mostly under pKd 3.1 to 4
Conditions in all cases: plain residues with an end cap or a label only (N-terminal biotin on a linker: ttds)
DLG4_1, P78352 = target: DLG4_1, P78352
DLG4_1, P78352, sequence (P78352 62-152): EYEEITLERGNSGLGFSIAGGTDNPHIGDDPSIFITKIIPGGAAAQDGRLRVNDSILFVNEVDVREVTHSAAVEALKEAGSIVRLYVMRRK

FRMPD3, Q5JV73 = target: FRMPD3, Q5JV73
FRMPD3, Q5JV73, sequence (Q5JV73 12-100): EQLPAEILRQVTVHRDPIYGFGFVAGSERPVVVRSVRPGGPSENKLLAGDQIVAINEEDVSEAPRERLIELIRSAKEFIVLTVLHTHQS

GRIP1_3, Q9Y3R0 = target: T1, GRIP1_3, Q9Y3R0
GRIP2_7, Q9C0E4 = target: GRIP2_7, Q9C0E4
GRIP2_7, Q9C0E4, sequence (Q9C0E4 934-1023): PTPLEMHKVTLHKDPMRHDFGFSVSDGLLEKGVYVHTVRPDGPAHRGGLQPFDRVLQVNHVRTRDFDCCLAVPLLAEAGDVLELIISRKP

HTRA3, P83110 = target: T2, HTRA3, P83110
IL16_1, Q14005 = target: IL16_1, Q14005
IL16_1, Q14005, sequence (Q14005 210-306): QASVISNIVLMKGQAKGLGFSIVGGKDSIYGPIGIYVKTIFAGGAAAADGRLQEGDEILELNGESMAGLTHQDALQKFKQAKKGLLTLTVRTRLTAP

Inadl_2, Q8NI35 = target: Inadl_2, Q8NI35
Inadl_2, Q8NI35, sequence (Q8NI35 238-335): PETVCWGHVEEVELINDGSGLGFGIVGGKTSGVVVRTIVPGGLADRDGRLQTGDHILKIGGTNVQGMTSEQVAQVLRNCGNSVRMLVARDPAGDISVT

Inadl_8, Q8NI35 = target: Inadl_8, Q8NI35
Inadl_8, Q8NI35, sequence (Q8NI35 1425-1530): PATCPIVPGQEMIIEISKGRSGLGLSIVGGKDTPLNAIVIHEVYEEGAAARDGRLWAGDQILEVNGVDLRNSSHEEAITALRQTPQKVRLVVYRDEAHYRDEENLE

LDB3, O75112 = target: LDB3, O75112
LDB3, O75112, sequence (O75112 1-94): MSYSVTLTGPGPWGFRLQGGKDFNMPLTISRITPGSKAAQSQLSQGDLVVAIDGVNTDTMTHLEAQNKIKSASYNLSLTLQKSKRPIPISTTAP

LIMK2, P53671 = target: LIMK2, P53671
LIMK2, P53671, sequence (P53671 143-248): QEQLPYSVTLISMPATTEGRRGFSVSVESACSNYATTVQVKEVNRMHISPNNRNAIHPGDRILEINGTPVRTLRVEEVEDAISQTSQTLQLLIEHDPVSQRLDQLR

LIN7C, Q9NUP9 = target: T3, LIN7C, Q9NUP9
MAGI1_1, Q96QZ7 = target: MAGI1_1, Q96QZ7
MAGI1_1, Q96QZ7, sequence (Q96QZ7 1-106): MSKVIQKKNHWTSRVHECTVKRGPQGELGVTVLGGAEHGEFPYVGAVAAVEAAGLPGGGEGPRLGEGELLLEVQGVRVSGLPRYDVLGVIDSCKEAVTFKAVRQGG

MAGI2_2, Q86UL8 = target: MAGI2_2, Q86UL8
MAGI2_2, Q86UL8, sequence (Q86UL8 410-522): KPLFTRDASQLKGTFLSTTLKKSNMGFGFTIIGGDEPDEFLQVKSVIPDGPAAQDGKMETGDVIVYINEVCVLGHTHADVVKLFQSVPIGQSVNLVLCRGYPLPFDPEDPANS

MAGI2_4, Q86UL8 = target: MAGI2_4, Q86UL8
MAGI2_4, Q86UL8, sequence (Q86UL8 772-865): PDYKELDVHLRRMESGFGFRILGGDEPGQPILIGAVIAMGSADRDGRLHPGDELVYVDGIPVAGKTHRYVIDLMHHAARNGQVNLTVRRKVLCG

MAGI2_6, Q86UL8 = target: MAGI2_6, Q86UL8
MAGI2_6, Q86UL8, sequence (Q86UL8 1141-1229): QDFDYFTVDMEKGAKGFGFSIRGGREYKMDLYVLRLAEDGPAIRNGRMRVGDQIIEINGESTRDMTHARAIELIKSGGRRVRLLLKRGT

MAGI3_2, Q5TCQ9 = target: MAGI3_2, Q5TCQ9
MAGI3_2, Q5TCQ9, sequence (Q5TCQ9 398-503): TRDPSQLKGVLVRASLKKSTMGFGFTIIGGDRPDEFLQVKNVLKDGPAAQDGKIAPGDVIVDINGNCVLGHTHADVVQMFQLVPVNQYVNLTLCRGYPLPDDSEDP

MPP6, Q9NZW5 = target: T4, MPP6, Q9NZW5
MPP7, Q5T2T1 = target: T5, MPP7, Q5T2T1
NHERF3_3, Q5T2W1 = target: T6, NHERF3_3, Q5T2W1
NHERF4_1, Q86UT5-2 = target: NHERF4_1, Q86UT5-2
NHERF4_1, Q86UT5-2, sequence (Q86UT5 other isoform, or with tags, fused parts or gaps): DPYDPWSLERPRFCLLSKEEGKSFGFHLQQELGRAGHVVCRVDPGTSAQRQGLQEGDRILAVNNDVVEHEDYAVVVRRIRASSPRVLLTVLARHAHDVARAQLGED

NOS1, P29475 = target: NOS1, P29475
NOS1, P29475, sequence (P29475 9-101): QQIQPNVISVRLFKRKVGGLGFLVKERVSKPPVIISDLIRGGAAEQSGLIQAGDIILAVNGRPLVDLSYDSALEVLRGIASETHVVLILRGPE

PDZD7_3, Q9H5P4 = target: T7, PDZD7_3, Q9H5P4
PDZRN4_1, Q6ZMN7 = target: PDZRN4_1, Q6ZMN7
PDZRN4_1, Q6ZMN7, sequence (Q6ZMN7 213-318): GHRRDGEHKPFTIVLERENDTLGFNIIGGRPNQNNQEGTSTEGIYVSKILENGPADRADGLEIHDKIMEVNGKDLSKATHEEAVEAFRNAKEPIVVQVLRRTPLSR

RADIL, Q96JH8 = target: T8, RADIL, Q96JH8
SCRIB_2, Q14160 = target: SCRIB_2, Q14160
SCRIB_2, Q14160, sequence (Q14160 857-960): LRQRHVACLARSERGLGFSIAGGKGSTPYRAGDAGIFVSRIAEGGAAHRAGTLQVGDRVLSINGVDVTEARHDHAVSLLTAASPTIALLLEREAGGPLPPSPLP

SNTB1, Q13884 = target: T9, SNTB1, Q13884
SNTG1, Q9NSN8 = target: T10, SNTG1, Q9NSN8

Binder | pKd (DLG4_1, P78352) | pKd (FRMPD3, Q5JV73) | pKd (GRIP1_3, Q9Y3R0) | pKd (GRIP2_7, Q9C0E4) | pKd (HTRA3, P83110) | pKd (IL16_1, Q14005) | pKd (Inadl_2, Q8NI35) | pKd (Inadl_8, Q8NI35) | pKd (LDB3, O75112) | pKd (LIMK2, P53671) | pKd (LIN7C, Q9NUP9) | pKd (MAGI1_1, Q96QZ7) | pKd (MAGI2_2, Q86UL8) | pKd (MAGI2_4, Q86UL8) | pKd (MAGI2_6, Q86UL8) | pKd (MAGI3_2, Q5TCQ9) | pKd (MPP6, Q9NZW5) | pKd (MPP7, Q5T2T1) | pKd (NHERF3_3, Q5T2W1) | pKd (NHERF4_1, Q86UT5-2) | further results
STLTIFETAL [ABCC4, O15439] | 4.23 | 3.6 | below the threshold | below the threshold | below the threshold | 3.5 | below the threshold | below the threshold | below the threshold | below the threshold | 4.68 | below the threshold | 4.13 | 3.54 | 4.53 | 4 | below the threshold | 3.56 | 3.61 | 4.61 | pKd (NOS1, P29475): 4.04; pKd (PDZD7_3, Q9H5P4): 5.27; pKd (PDZRN4_1, Q6ZMN7): 5.42; pKd (RADIL, Q96JH8): 3.56; pKd (SCRIB_2, Q14160): 4.92; pKd (SNTB1, Q13884): 5.05; pKd (SNTG1, Q9NSN8): 4.89
IDNDTESTAL [ARHGAP17, Q68EM7] | below the threshold | below the threshold | below the threshold | below the threshold | below the threshold | below the threshold | below the threshold | below the threshold | below the threshold | below the threshold | below the threshold | below the threshold | below the threshold | below the threshold | 3.79 | below the threshold | below the threshold | below the threshold | below the threshold | 4.16 | pKd (NOS1, P29475): 3.95; pKd (PDZD7_3, Q9H5P4): 4.25; pKd (PDZRN4_1, Q6ZMN7): 4.26; pKd (RADIL, Q96JH8): below the threshold; pKd (SCRIB_2, Q14160): 3.61; pKd (SNTB1, Q13884): 4.13; pKd (SNTG1, Q9NSN8): below the threshold
